These results are taken from US20240417436A1 (BRIGHT PEAK THERAPEUTICS, published 2024).

This assay concerns the target T1, IL-2 receptor βγ complex on pan T cells (human, UniProt P14784 27-551; P31785 23-369).
T1 sequence (looked up) 1: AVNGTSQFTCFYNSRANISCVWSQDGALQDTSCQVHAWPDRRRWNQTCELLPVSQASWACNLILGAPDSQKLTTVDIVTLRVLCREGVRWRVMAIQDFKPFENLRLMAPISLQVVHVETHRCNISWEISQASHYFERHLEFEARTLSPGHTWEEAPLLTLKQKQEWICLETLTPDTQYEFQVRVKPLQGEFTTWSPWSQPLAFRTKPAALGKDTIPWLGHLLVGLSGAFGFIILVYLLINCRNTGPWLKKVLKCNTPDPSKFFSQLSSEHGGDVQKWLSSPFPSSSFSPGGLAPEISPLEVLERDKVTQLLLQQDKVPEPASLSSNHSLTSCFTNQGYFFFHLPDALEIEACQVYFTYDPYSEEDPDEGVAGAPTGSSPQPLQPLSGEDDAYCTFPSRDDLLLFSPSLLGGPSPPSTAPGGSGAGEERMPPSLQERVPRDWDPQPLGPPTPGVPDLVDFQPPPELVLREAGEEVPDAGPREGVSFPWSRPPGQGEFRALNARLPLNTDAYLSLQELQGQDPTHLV
T1 sequence (looked up) 2: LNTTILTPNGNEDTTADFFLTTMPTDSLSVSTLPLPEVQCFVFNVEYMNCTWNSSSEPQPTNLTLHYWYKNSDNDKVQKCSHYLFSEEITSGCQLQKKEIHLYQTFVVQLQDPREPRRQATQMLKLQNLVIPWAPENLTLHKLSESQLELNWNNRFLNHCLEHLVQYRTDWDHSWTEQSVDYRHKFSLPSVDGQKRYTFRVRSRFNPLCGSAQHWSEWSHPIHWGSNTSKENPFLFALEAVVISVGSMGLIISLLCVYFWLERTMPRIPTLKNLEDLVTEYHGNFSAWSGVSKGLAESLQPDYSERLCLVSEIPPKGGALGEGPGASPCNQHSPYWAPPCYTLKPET
In words: cell-based or functional assay.

Bridges are numbered along the chain shown (N, C = ends). Primed or numbered codes have the meaning given here. [ ]: non-standard residue; d: D form. Ygp = O-(8x polyethylene glycol-amino)-tyrosine; Yn3 = O-(9x polyethylene glycol-azido)-tyrosine; cleavable moiety = not defined here; PEG4′ = 4x polyethylene glycol; PEG9″ = 9x polyethylene glycol; hSer = N[C@@H](CCO)C(=O)O; Nle = CCCC[C@H](N)C(=O)O

B1: CMP-304, MMP2 cleaved (ligand)
chain: PLGLAGAPTSSSTKKTQLQLEHLLLDLQEILNGINNYKNPKLTR[Nle]L[hSer][Yn3]KF[Ygp][Nle]PKKATELKHLQCLEEELKPLEEVL[hSer]LAQSKNFHLRPRDLISNINVIVLELKGSETTF[hSer]CEYADETATIVEFLNRWITFSQSIISTLT
modifications: ends and bridges not checked; also: cleaved by MMP2 within the cleavable peptide, macrocycle opened, cut site not given here, PEG9 linker
For B1, the “Average EC50, pSTAT5 assay in pan T cells, MMP2 cleaved molecule” value (“Average EC50 … MMP2 cleaved molecule” below) turned out to be 8.61 nM.

B2: CMP-169 (ligand)
chain: APTSSSTKKTQLQLEHLLLDLQEILNGINNYKNPKLTR[Nle]L[hSer][Yn3]KF[Ygp][Nle]PKKATELKHLQCLEEELKPLEEVL[hSer]LAQSKNFHLRPRDLISNINVIVLELKGSETTF[hSer]CEYADETATIVEFLNRWITFSQSIISTLT
modifications: bridge 9-23; not fully specified (residue 9, bridges); ends not checked; also: cleavable peptide of the bridge not defined
As to B2, the “Average EC50, pSTAT5 assay in pan T cells, intact molecule” value (shortened to “Average EC50 … intact molecule”) is 53.4 nM.

B3: CMP-169, MMP2 cleaved (ligand)
chain: APTSSSTKKTQLQLEHLLLDLQEILNGINNYKNPKLTR[Nle]L[hSer][Yn3]KF[Ygp][Nle]PKKATELKHLQCLEEELKPLEEVL[hSer]LAQSKNFHLRPRDLISNINVIVLELKGSETTF[hSer]CEYADETATIVEFLNRWITFSQSIISTLT
modifications: ends and bridges not checked; also: cleavable moiety between Lys9 and Glu23 side chains cut by MMP2, macrocycle opened, cut site not given here
In the case of B3, the “Average EC50 … MMP2 cleaved molecule” value worked out at 5.39 nM.

B4: CMP-302, MMP2 cleaved (ligand)
chain: GPLGLAGAPTSSSTKKTQLQLEHLLLDLQEILNGINNYKNPKLTR[Nle]L[hSer][Yn3]KF[Ygp][Nle]PKKATELKHLQCLEEELKPLEEVL[hSer]LAQSKNFHLRPRDLISNINVIVLELKGSETTF[hSer]CEYADETATIVEFLNRWITFSQSIISTLT
modifications: ends and bridges not checked; also: cleaved by MMP2 within the cleavable peptide, macrocycle opened, cut site not given here
For B4, the “Average EC50 … MMP2 cleaved molecule” value was 1.43 nM.

B5: CMP-300, MMP2 cleaved (ligand)
chain: APTSSSTKKTQLQLEHLLLDLQEILNGINNYKNPKLTR[Nle]L[hSer][Yn3]KF[Ygp][Nle]PKKATELKHLQCLEEELKPLEEVL[hSer]LAQSKNFHLRPRDLISNINVIVLELKGSETTF[hSer]CEYADETATIVEFLNRWITFSQSIISTLT
modifications: ends and bridges not checked; also: cleavable moiety between Glu23 side chain and N-terminus cut by MMP2, macrocycle opened, cut site not given here
As for B5, the “Average EC50 … MMP2 cleaved molecule” value is 1.73 nM.

B6: CMP-302 (ligand)
chain: GPLGLAGAPTSSSTKKTQLQLEHLLLDLQEILNGINNYKNPKLTR[Nle]L[hSer][Yn3]KF[Ygp][Nle]PKKATELKHLQCLEEELKPLEEVL[hSer]LAQSKNFHLRPRDLISNINVIVLELKGSETTF[hSer]CEYADETATIVEFLNRWITFSQSIISTLT
modifications: lactam N-30; ends not checked
On to B6, for which the “Average EC50 … intact molecule” value was 63.4 nM.

B7: CMP-303 (ligand)
chain: PLGLAGAPTSSSTKKTQLQLEHLLLDLQEILNGINNYKNPKLTR[Nle]L[hSer][Yn3]KF[Ygp][Nle]PKKATELKHLQCLEEELKPLEEVL[hSer]LAQSKNFHLRPRDLISNINVIVLELKGSETTF[hSer]CEYADETATIVEFLNRWITFSQSIISTLT
modifications: linker N-29 via PEG4′; ends not checked
In the case of B7, the “Average EC50 … intact molecule” value came to 97.9 nM.

B8: CMP-304 (ligand)
chain: PLGLAGAPTSSSTKKTQLQLEHLLLDLQEILNGINNYKNPKLTR[Nle]L[hSer][Yn3]KF[Ygp][Nle]PKKATELKHLQCLEEELKPLEEVL[hSer]LAQSKNFHLRPRDLISNINVIVLELKGSETTF[hSer]CEYADETATIVEFLNRWITFSQSIISTLT
modifications: linker N-29 via PEG9″; ends not checked
With B8, the “Average EC50 … intact molecule” value stood at 110 nM.

B9: CMP-300 (ligand)
chain: APTSSSTKKTQLQLEHLLLDLQEILNGINNYKNPKLTR[Nle]L[hSer][Yn3]KF[Ygp][Nle]PKKATELKHLQCLEEELKPLEEVL[hSer]LAQSKNFHLRPRDLISNINVIVLELKGSETTF[hSer]CEYADETATIVEFLNRWITFSQSIISTLT
modifications: bridge N-23; not fully specified (N-terminus, bridges); ends not checked; also: cleavable peptide of the bridge not defined
Take B9: the “Average EC50 … intact molecule” value was determined as 94.7 nM.

B10: CMP-303, MMP2 cleaved (ligand)
chain: PLGLAGAPTSSSTKKTQLQLEHLLLDLQEILNGINNYKNPKLTR[Nle]L[hSer][Yn3]KF[Ygp][Nle]PKKATELKHLQCLEEELKPLEEVL[hSer]LAQSKNFHLRPRDLISNINVIVLELKGSETTF[hSer]CEYADETATIVEFLNRWITFSQSIISTLT
modifications: ends and bridges not checked; also: cleaved by MMP2 within the cleavable peptide, macrocycle opened, cut site not given here, PEG4 linker
For B10, the “Average EC50 … MMP2 cleaved molecule” value was 4.4 nM.

B11: CMP-305 (ligand)
chain: APTSSSTKKTQLQLEHLLLDLQKILNGINNYKNPKLTR[Nle]L[hSer][Yn3]KF[Ygp][Nle]PKKATELKHLQCLEEELKPLEEVL[hSer]LAQSKNFHLRPRDLISNINVIVLELKGSETTF[hSer]CEYADETATIVEFLNRWITFSQSIISTLT
modifications: linker 15-23 via cleavable moiety; ends not checked; also: cleavable peptide of the bridge not defined
For the molecule B11, the “Average EC50 … intact molecule” value amounted to 128 nM.

B12: CMP-163, MMP2 cleaved (ligand)
chain: APTSSSTKKTQLQLEHLLLDLQKILNGINNYKNPKLTR[Nle]L[hSer][Yn3]KF[Ygp][Nle]PKKATELKHLQCLEEELKPLEEVL[hSer]LAQSKNFHLRPRDLISNINVIVLELKGSETTF[hSer]CEYADETATIVEFLNRWITFSQSIISTLT
modifications: not fully specified (residue 23, N-terminus); ends and bridges not checked; also: macrocycle (Lys23 side chain - cleavable peptide - PEG4 - glutaryl - Ala1) cut by MMP2, cut site not given here
Take B12: the “Average EC50 … MMP2 cleaved molecule” value turned out to be 0.76 nM.

B13: CMP-164, MMP2 cleaved (ligand)
chain: APTSSSTKKTQLQLEHLLLDLQKILNGINNYKNPKLTR[Nle]L[hSer][Yn3]KF[Ygp][Nle]PKKATELKHLQCLEEELKPLEEVL[hSer]LAQSKNFHLRPRDLISNINVIVLELKGSETTF[hSer]CEYADETATIVEFLNRWITFSQSIISTLT
modifications: not fully specified (residue 23, N-terminus); ends and bridges not checked; also: macrocycle (Lys23 side chain - cleavable peptide - glutaryl - Ala1) cut by MMP2, cut site not given here
Turning to B13, the “Average EC50 … MMP2 cleaved molecule” value came out at 0.61 nM.

B14: CMP-301 (ligand)
chain: APTSSSTKKTQLQLEHLLLDLQEILNGINNYKNPKLTR[Nle]L[hSer][Yn3]KF[Ygp][Nle]PKKATELKHLQCLEEELKPLEEVL[hSer]LAQSKNFHLRPRDLISNINVIVLELKGSETTF[hSer]CEYADETATIVEFLNRWITFSQSIISTLT
modifications: bridge N-23; not fully specified (N-terminus, bridges); ends not checked; also: cleavable peptide of the bridge not defined
Take B14: the “Average EC50 … intact molecule” value stood at 180 nM.

B15: CMP-301, MMP2 cleaved (ligand)
chain: APTSSSTKKTQLQLEHLLLDLQEILNGINNYKNPKLTR[Nle]L[hSer][Yn3]KF[Ygp][Nle]PKKATELKHLQCLEEELKPLEEVL[hSer]LAQSKNFHLRPRDLISNINVIVLELKGSETTF[hSer]CEYADETATIVEFLNRWITFSQSIISTLT
modifications: ends and bridges not checked; also: cleavable moiety between Glu23 side chain and N-terminus cut by MMP2, macrocycle opened, cut site not given here
Turning to B15, the “Average EC50 … MMP2 cleaved molecule” value turned out to be 0.883 nM.
